# Experimental data reported in patent US20240317884A1, “METHOD FOR ALLOWING IMMUNE CELLS INFILTRATION IN TUMORS” (Alethia Biotherapeutics Inc., priority 2021, published 2024).
# Legend:
# [1] = Non-clinical toxicity, weekly administration, rats; assay type: in vivo, Sprague-Dawley rats
# From the text: This finding most likely reflects a slight antigenic stimulation by AB-16B5 in these 2 regional lymph nodes.
# tumor biopsies [2] = test: Human tumor biopsies of patients treated with AB-16B5 as single agent (H&E); assay type: in vivo; conditions: after the second cycle
# Procedure: In parallel human tumor biopsies of patients treated with AB-16B5 as single agent were analyzed (FIGS. 2B-2E). Needle biopsies obtained from a patient with metastatic thyroid cancer and form a patient with inoperable metastatic gastric cancer were sectioned and stained with hematoxylin and eosin. An on-treatment biopsy from a patient with thyroid cancer metastasic to the lungs was obtained after the second cycle treatment with AB-16B5. […] Hemosiderin-laden macrophages were observed inside necrotic areas some reflecting red blood cell extravasation associated with necrosis (not shown). […] On display one finds.
# [3] = Non-clinical pharmacokinetics, single and repeat-dose, rats; assay type: in vivo; conditions: Sprague-Dawley rats; infusion
# From the text: (§1) There was an approximate 70% increase in systemic exposure following repeated dosing from Day 1 to Day 26 which is consistent with the elimination half-life of AB-16B5 and the dosing intervals. […] The sCLU concentrations were generally back to their baseline levels after 3 to 5 days. The concurrent decrease in sCLU concentrations immediately following dosing with AB-16B5 is consistent with an antigen-sink phenomenon.
# tumor biopsies [4] = test: Phase I: necrosis in tumor biopsies; assay type: in vivo, human; conditions: for Necrosis Pre-Treatment: baseline
# Procedure: (§2) Tumor biopsies were collected during the standard dose escalation to investigate the presence of AB-16B5 within the tumor. A total of 4 pre-treatment and 5 post-treatment tumor biopsies were suitable for analysis. These post-treatment tumor biopsies were collected following dosing on Cycle 2 Day 15 (between Cycle 2 Day 15 and Cycle 2 Day 18). The biopsy sites were liver (n=2), lymph node (n=2), bladder, skin and vulva.
# Immunohistochemistry studies were conducted on paired tumor biopsies to determine if the treatment with AB-16B5 was associated with a reacquisition of an epithelial phenotype.
# [5] = Phase I: detection of AB-16B5 in tumor biopsies; assay type: in vivo, human; conditions: for Detection of AB-16B5 in Tumor Biopsies, Post-Treatment Biopsy: 12.0 mg/kg, after dosing on Cycle 2 Day 15
# From the text: as §2
# [6] = Phase I: plasma pharmacokinetics (non-compartmental analysis); assay type: in vivo, human; conditions: for AUC0-t / Cmax / Thalf: mean; for AUC0-t / Cmax / Thalf / Tmax: plasma, first dose of cycle; for Tmax: median
# From the text: Plasma PK parameters for AB-16B5 were derived from the concentration-time profiles following the first dose of Cycle 1 and the first dose of Cycle 2 using a non-compartmental analysis (NCA) with Phoenix WinNonlin.
# [7] = tested on: advanced solid malignancy; test: Phase I study AB-16B5-101: tumor response (RECIST); assay type: in vivo, human
# [8] = Non-clinical pharmacokinetics, single and repeat-dose, monkeys; assay type: in vivo; conditions: Rhesus monkeys
# From the text: as §1
# [9] = Non-clinical toxicity, weekly administration, monkeys; assay type: in vivo, Rhesus monkeys
# From the text: Consequently, they were not considered to be toxicologically significant.
# [10] = tested on: frozen tissues from human, Rhesus monkey, and Sprague-Dawley rat; test: Tissue cross-reactivity study; assay type: binding; conditions: AB-16B5 staining at 2 and 10 μg/mL
# Procedure: In addition, a tissue cross-reactivity study was conducted to determine the potential cross-reactivity of AB-16B5 with frozen tissues from human, Rhesus monkey, and Sprague-Dawley rat tissues.
# [11] = Subject 012, Breast, biopsy site Skin
# [12] = Subject 013, Prostate, biopsy site Bladder
# [13] = RECIST-evaluable population (14 subjects), 1.5-12.0 mg/kg
# [14] = Subject 001, Pancreatic, 1.5 mg/kg weekly IV, 2 cycles
# [15] = Subject 003, Soft Tissue Sarcoma, 6.0 mg/kg weekly IV, 2 cycles
# [16] = Subject 005, Prostate, 6.0 mg/kg weekly IV, 2 cycles
# [17] = Subject 010, Colorectal, 12.0 mg/kg weekly IV, 4 cycles
# [18] = Subject 012, Breast, 12.0 mg/kg weekly IV, 2 cycles
# [19] = Subject 013, Prostate, 12.0 mg/kg weekly IV, 2 cycles
# [20] = Subject 014, Vulvar Melanoma, 12.0 mg/kg weekly IV, 2 cycles
substance,measurement,setting,value
"AB-16B5: humanized IgG2 monoclonal antibody targeting sCLU; light chain SEQ ID NO:11, heavy chain SEQ ID NO:12",No Observable Adverse Effect Level (NOAEL),"[1]; Sprague-Dawley rats, weekly administration",100 mg/kg/dose
same,"incidence of minimal lymphoid hypercellularity, mandibular lymph node","[1]; rat, in vivo",1/20
same,"incidence of minimal lymphoid hypercellularity, mesenteric lymph node","[1]; rat, in vivo",2/20
same,"treatment-related clinical signs and changes (body weight, food consumption, ophthalmology, clinical pathology, organ weights)","[1]; rat, in vivo",did not result in any treatment-related clinical signs
same,"immune infiltrate, on-treatment biopsy","tumor biopsies [2]; patient with inoperable metastatic gastric cancer, small fragments",infiltrated by a mix neutrophilic and mononucleated immune cells infiltrate
same,"immune infiltrate, on-treatment biopsy","tumor biopsies [2]; patient with thyroid cancer metastatic to the lungs, edge of fragment",lymphoplasmacytic infiltrate was observed
same,"necrosis of tumor fragments, on-treatment biopsy","tumor biopsies [2]; patient with thyroid cancer metastatic to the lungs, single agent",essentially all tumor fragments were necrotic
same,systemic exposure over 24 hours with increasing dose levels,[3],dose proportional manner
same,Necrosis Post-Treatment,"tumor biopsies [4]; Subject 006, Breast, biopsy site Skin, 9.0 mg/kg",10%
same,Necrosis Pre-Treatment,"tumor biopsies [4]; Subject 006, Breast, biopsy site Skin",0%
same,Necrosis Post-Treatment,"tumor biopsies [4]; Subject 007, Gastric, biopsy site Gastric, 9.0 mg/kg",0%
same,Necrosis Pre-Treatment,"tumor biopsies [4]; Subject 007, Gastric, biopsy site Gastric",0%
same,Necrosis Post-Treatment,"tumor biopsies [4]; Subject 012, Breast, biopsy site Skin, 12.0 mg/kg",5%
same,Necrosis Pre-Treatment,tumor biopsies [4]; [11],0%
same,Necrosis Post-Treatment,"tumor biopsies [4]; Subject 013, Prostate, biopsy site Bladder, 12.0 mg/kg",10%
same,Necrosis Pre-Treatment,tumor biopsies [4]; [12],0%
same,presence of AB-16B5 in all pre-treatment tumor biopsies,"[5]; 4 pre-treatment biopsies, baseline",negative
same,presence of AB-16B5 in all post-treatment tumor biopsies analyzed,[5]; 5 post-treatment biopsies,confirmed
same,"Detection of AB-16B5 in Tumor Biopsies, Post-Treatment Biopsy","[5]; Subject 009, Lung, biopsy site Liver",Positive
same,"Detection of AB-16B5 in Tumor Biopsies, Post-Treatment Biopsy","[5]; Subject 010, Colorectal, biopsy site Liver",Positive
same,"Detection of AB-16B5 in Tumor Biopsies, Pre-Treatment Biopsy","[5]; Subject 011, Colorectal, biopsy site Lymph node, baseline",Negative
same,"Detection of AB-16B5 in Tumor Biopsies, Post-Treatment Biopsy",[5]; [11],Positive
same,"Detection of AB-16B5 in Tumor Biopsies, Pre-Treatment Biopsy","[5]; Subject 012, Breast, biopsy site Skin, baseline",Negative
same,"Detection of AB-16B5 in Tumor Biopsies, Post-Treatment Biopsy",[5]; [12],Positive
same,"Detection of AB-16B5 in Tumor Biopsies, Pre-Treatment Biopsy","[5]; Subject 014, Vulvar melanoma, biopsy site Vulva, baseline",Negative
same,"Detection of AB-16B5 in Tumor Biopsies, Post-Treatment Biopsy","[5]; Subject 015, Ovarian, biopsy site Lymph node",Positive
same,"Detection of AB-16B5 in Tumor Biopsies, Pre-Treatment Biopsy","[5]; Subject 015, Ovarian, biopsy site Lymph node, baseline",Negative
same,AUC0-t,"[6]; Cycle 1, 1.5 mg/kg (N = 1)","230,321 ng*h/mL"
same,Cmax,"[6]; Cycle 1, 1.5 mg/kg (N = 1)","17,958 ng/mL"
same,Thalf,"[6]; Cycle 1, 1.5 mg/kg (N = 1)",9.35 h
same,Tmax,"[6]; Cycle 1, 1.5 mg/kg (N = 1)",1.17 h
same,AUC0-t,"[6]; Cycle 1, 3.0 mg/kg (N = 1)","645,602 ng*h/mL"
same,Cmax,"[6]; Cycle 1, 3.0 mg/kg (N = 1)","50,736 ng/mL"
same,Thalf,"[6]; Cycle 1, 3.0 mg/kg (N = 1)",7.39 h
same,Tmax,"[6]; Cycle 1, 3.0 mg/kg (N = 1)",1.08 h
same,AUC0-t,"[6]; Cycle 1, 6.0 mg/kg (N = 3)","1,357,773 ng*h/mL"
same,Cmax,"[6]; Cycle 1, 6.0 mg/kg (N = 3)","117,663 ng/mL"
same,Thalf,"[6]; Cycle 1, 6.0 mg/kg (N = 3)",6.99 h
same,Tmax,"[6]; Cycle 1, 6.0 mg/kg (N = 3)",1.00 h
same,AUC0-t,"[6]; Cycle 1, 9.0 mg/kg (N = 3)","2,083,091 ng*h/mL"
same,Cmax,"[6]; Cycle 1, 9.0 mg/kg (N = 3)","162,103 ng/mL"
same,Thalf,"[6]; Cycle 1, 9.0 mg/kg (N = 3)",10.78 h
same,Tmax,"[6]; Cycle 1, 9.0 mg/kg (N = 3)",2.00 h
same,AUC0-t,"[6]; Cycle 1, 12.0 mg/kg (N = 7)","4,045,786 ng*h/mL"
same,Cmax,"[6]; Cycle 1, 12.0 mg/kg (N = 7)","256,977 ng/mL"
same,Thalf,"[6]; Cycle 1, 12.0 mg/kg (N = 7)",11.99 h
same,Tmax,"[6]; Cycle 1, 12.0 mg/kg (N = 7)",1.12 h
same,AUC0-t,"[6]; Cycle 2, 1.5 mg/kg (N = 1)","188,584 ng*h/mL"
same,Cmax,"[6]; Cycle 2, 1.5 mg/kg (N = 1)","15,662 ng/mL"
same,Thalf,"[6]; Cycle 2, 1.5 mg/kg (N = 1)",7.97 h
same,Tmax,"[6]; Cycle 2, 1.5 mg/kg (N = 1)",1.00 h
same,AUC0-t,"[6]; Cycle 2, 3.0 mg/kg (N = 1)","688,934 ng*h/mL"
same,Cmax,"[6]; Cycle 2, 3.0 mg/kg (N = 1)","61,466 ng/mL"
same,Thalf,"[6]; Cycle 2, 3.0 mg/kg (N = 1)",6.82 h
same,Tmax,"[6]; Cycle 2, 3.0 mg/kg (N = 1)",1.05 h
same,AUC0-t,"[6]; Cycle 2, 6.0 mg/kg (N = 3)","1,351,156 ng*h/mL"
same,Cmax,"[6]; Cycle 2, 6.0 mg/kg (N = 3)","120,466 ng/mL"
same,Thalf,"[6]; Cycle 2, 6.0 mg/kg (N = 3)",7.70 h
same,Tmax,"[6]; Cycle 2, 6.0 mg/kg (N = 3)",1.03 h
same,AUC0-t,"[6]; Cycle 2, 9.0 mg/kg (N = 3)","2,459,988 ng*h/mL"
same,Cmax,"[6]; Cycle 2, 9.0 mg/kg (N = 3)","163,840 ng/mL"
same,Thalf,"[6]; Cycle 2, 9.0 mg/kg (N = 3)",13.75 h
same,Tmax,"[6]; Cycle 2, 9.0 mg/kg (N = 3)",1.08 h
same,AUC0-t,"[6]; Cycle 2, 12.0 mg/kg (N = 7)","4,147,243 ng*h/mL"
same,Cmax,"[6]; Cycle 2, 12.0 mg/kg (N = 7)","230,268 ng/mL"
same,Thalf,"[6]; Cycle 2, 12.0 mg/kg (N = 7)",21.04 h
same,Tmax,"[6]; Cycle 2, 12.0 mg/kg (N = 7)",1.04 h
same,increase of mean Cmax and AUC0-t (systemic exposure) with the dose,"[6]; dose range of 3.0 to 12.0 mg/kg, Cycle 1 and Cycle 2",dose proportional
same,accumulation of AB-16B5 between Cycle 1 and Cycle 2,[6]; weekly IV infusion,No significant accumulation
same,"best overall response progressive disease (PD), number of subjects",[7]; [13],6 subjects
same,"best overall response progressive disease (PD), share of subjects",[7]; [13],43%
same,"best overall response stable disease (SD), number of subjects",[7]; [13],8 subjects
same,"best overall response stable disease (SD), share of subjects",[7]; [13],57%
same,Best Overall Response,[7]; [14],PD (progressive disease (PD))
same,Tumor Response at Last Assessment Non-Target Lesions,[7]; [14],PD (New (progressive disease (PD))
same,Tumor Response at Last Assessment Target Lesions,[7]; [14],PD (progressive disease (PD))
same,Tumor Response at Last Assessment Target Lesions,"[7]; Subject 002, Endometrium, 3.0 mg/kg weekly IV, 4 cycles",PD (progressive disease (PD))
same,Best Overall Response,[7]; [15],PD (progressive disease (PD))
same,Tumor Response at Last Assessment Non-Target Lesions,[7]; [15],PD (New (progressive disease (PD))
same,Best Overall Response,[7]; [16],PD (progressive disease (PD))
same,Tumor Response at Last Assessment Target Lesions,[7]; [16],PD (progressive disease (PD))
same,Tumor Response at Last Assessment Non-Target Lesions,"[7]; Subject 007, Gastric, 9.0 mg/kg weekly IV, 8 cycles",PD (New (progressive disease (PD))
same,Tumor Response at Last Assessment Non-Target Lesions,"[7]; Subject 008, Thyroid, 9.0 mg/kg weekly IV, 4 cycles",PD (New (progressive disease (PD))
same,Tumor Response at Last Assessment Non-Target Lesions,"[7]; Subject 009, Lung, 12.0 mg/kg weekly IV, 6 cycles",PD (New (progressive disease (PD))
same,Tumor Response at Last Assessment Non-Target Lesions,[7]; [17],PD (New (progressive disease (PD))
same,Tumor Response at Last Assessment Target Lesions,[7]; [17],PD (progressive disease (PD))
same,Best Overall Response,[7]; [18],PD (progressive disease (PD))
same,Tumor Response at Last Assessment Non-Target Lesions,[7]; [18],PD (progressive disease (PD))
same,Best Overall Response,[7]; [19],PD (progressive disease (PD))
same,Tumor Response at Last Assessment Non-Target Lesions,[7]; [19],PD (New (progressive disease (PD))
same,Best Overall Response,[7]; [20],PD (progressive disease (PD))
same,Tumor Response at Last Assessment Non-Target Lesions,[7]; [20],PD (New (progressive disease (PD))
same,Tumor Response at Last Assessment Non-Target Lesions,"[7]; Subject 015, Ovarian Cancer, 12.0 mg/kg weekly IV, 4 cycles",PD (New (progressive disease (PD))
same,time on treatment with stable disease (SD) and clinical benefit,[7]; patient with advanced gastric cancer,24 weeks
same,systemic exposure with increasing dose levels,[8],generally greater than dose proportional
same,drug accumulation in terms of Cmax,[8]; repeated dosing once or twice weekly,no evidence of drug accumulation
same,No Observable Adverse Effect Level (NOAEL),"[9]; Rhesus monkeys, weekly administration",100 mg/kg/dose
same,signs of overt toxicity,"[9]; rhesus monkey, in vivo",did not result in any signs of overt toxicity
same,hepatocellular vacuolation in the liver,"[9]; rhesus monkey, in vivo, 100 mg/kg",2 animals
same,membrane staining in tissue panels,[10],no membrane staining was observed
